Patent US9469841B2, “Prodrug activation in cancer cells using molecular switches” (The Johns Hopkins University, priority 2008, dated 2016)
Read-outs that look alike come from different tables or passages of the source.

Key:
MBP317-347 = test: Effect of beta-cyclodextrin on maltose activation of switch MBP317-347; format: biochemical
Protocol: The rate of beta-lactam hydrolysis as a function of maltose (dots) follows the maltose-binding isotherm (blue). […] Initially, in the absence of any ligand, the rate of beta-lactam hydrolysis catalyzed by the switch is low. At about 5 minutes, maltose is added and the enzyme activity of the switch is turned on. At about 10 minutes, an excess of beta-cyclodextrin is added. This replaces maltose in the binding site and turns the enzyme activity of the switch off. At about 16 minutes, an excess of maltose is added which replaces beta-cyclodextrin and turns the enzyme activity of the switch back on.
Natural allosteric proteins often have modest (<10-fold) differences in function between the effector-bound and effector-unbound states. However very large differences in activity between the two states would be advantageous for many applications of protein switches. […] Using an iterative strategy involving random circular permutation and random insertion several switches were created that approach being on/off in nature (6). […] The creation of these switches was facilitated by a new directed evolution algorithm for non-homologous recombination that was developed for efficiently exploring the sequence space comprised of the possible fusions of the two proteins. […]

HIF-1a = HIF-1a (Homo sapiens, UniProt Q16665); conditions: cited from earlier work
GIA39 E. coli cells = test: Growth on "negative selection" minimal plates supplemented with 5FC; format: cell-based; parameters: key: + = growth; − = no growth
Protocol: Minimal media was used in the selection schemes and was based on a product mixture described by Sigma. For 1 L it containing 20 g of Select Agar (Sigma# A5054), 6.7 g of Yeast nitrogen base without amino acids (Sigma #Y0626), 1.92 g of Yeast synthetic drop-out without uracil (Sigma #Y1501), glucose to 2%, 1 mM IPTG and 50 μg/mL of chloramphenicol. For “negative” selection media, the above media was supplemented with 75 μg/mL or 25 μg/mL of 5FC and 1 μg/mL of uracil. For “positive” selection media, supplementation was with 25 μg/mL of cytosine, 1 mM arabinose and 100 μg/mL of ampicillin Each Bio-Assay dish contained 250 mL of selection media and each standard Petri dish contained 25 mL of media.
The selection scheme was developed to isolate library members whose CD activity is “off” in the absence of HIF-1a but “on” in the presence of HIF-1a. […] A GST-HIF-1a fusion was created that is under the control of the arabinose promoter on a plasmid that can coexist with the pDIM-C8 library plasmids. This “HIF-1a plasmid” is a variation of the pGEX plasmid and has ampicillin resistance. During selections, this HIF-1a plasmid will either be present to produce HIF-1a and activate the hybrid protein switches, or absent to avoid any production of HIF-1a.
During the negative selection, no HIF-1a plasmid was present in the cells. Thus, hybrids that are active in the absence of HIF-1a will convert the 5FC into 5FU and kill the cell. But, hybrids that are not active in the absence of HIF-1a will be able to use the minimal amount of uracil provided and grow to form colonies. The negative selection was performed twice in succession using the Bio-Assay dish size plates (2 plates each time with about 600,000 cells plated on each plate). The first time the negative selection media contained 75 μg/mL 5FC. The colonies that grew on this plated were recovered and then underwent a second negative selection to help ensure that any pDIM-C8 plasmids encoding a wild-type yCD were removed from the library. The second negative selection was performed the same as the first except that 25 μg/mL of 5FC was used. The cells that survived the second negative selection were harvested and then aliquoted. One aliquot was used to isolate library plasmids that were used in the positive selection that followed.
This experiment confirmed that the switch genes conferred sensitivity to 5FC depends on induction of expression of HIF1-a (see Table 2, below).
Cells harboring the switch genes in pDIM-C8 or cells with the same plasmid together with the HIF1-a plasmid were plated on minimal media plates supplemented with 5FC (i.e. the negative selection conditions). […]

E. coli cells = test: MIC of ampicillin for E. coli cells expressing switch, with and without maltose; format: cell-based; conditions: E. coli cells expressing MBP or BLA separately

HIF-1a, sequence (Q16665 786-826 limits assumed): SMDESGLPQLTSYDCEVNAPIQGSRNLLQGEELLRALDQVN
HIF-1a, sequence (Q09472 331-417 partner limits assumed): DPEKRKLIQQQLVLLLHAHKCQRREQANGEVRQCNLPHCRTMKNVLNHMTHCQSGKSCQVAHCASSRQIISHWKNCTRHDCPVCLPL

## OC[C@H]1O[C@@H]2O[C@H]3[C@H](O)[C@@H](O)[C@@H](O[C@H]4[C@H](O)[C@@H](O)[C@@H](O[C@H]5[C@H](O)[C@@H](O)[C@@H](O[C@H]6[C@H](O)[C@@H](O)[C@@H](O[C@H]7[C@H](O)[C@@H](O)[C@@H](O[C@H]8[C@H](O)[C@@H](O)[C@@H](O[C@H]1[C@H](O)[C@H]2O)O[C@@H]8CO)O[C@@H]7CO)O[C@@H]6CO)O[C@@H]5CO)O[C@@H]4CO)O[C@@H]3CO [beta-cylcodextrin, beta-cyclodextrin]
MBP317-347
  Effect on maltose activation of the switch: antagonist preventing maltose-activation

## CH1 domain: CH1 domain of p300, 100 amino acids, binds HIF-1a
HIF-1a; in vitro at 25° C., read-out: dissociation constant of the CH1 domain and HIF-1a
  Kd: ~120 nM
HIF-1a; minimal domains CH1 and C-TAD of HIF-1a, read-out: Kd
  Kd: 120 nM

B1: yCD: yeast cytosine deaminase containing the A23L/V108I/I140L mutations; positive control (protein, UniProt Q12178 1-158, looked up, variant A23L V108I I140L)
Cytosine deaminase: MVTGGMASKWDQKGMDIAYEEALLGYKEGGVPIGGCLINNKDGSVLGRGHNMRFQKGSATLHGEISTLENCGRLEGKVYKDTTLYTTLSPCDMCTGAIIMYGIPRCVIGENVNFKSKGEKYLQTRGHEVVVVDDERCKKLMKQFIDERPQDWFEDIGE
GIA39 E. coli cells; w/ HIF1-a plasmid, 1 mM arabinose
  Growth on "negative selection" minimal plates supplemented with 75 μg/ml 5FC: −
GIA39 E. coli cells; w/ HIF1-a plasmid, No arabinose
  Growth on "negative selection" minimal plates supplemented with 75 μg/ml 5FC: −
GIA39 E. coli cells; w/o HIF1-a plasmid, 1 mM arabinose
  Growth on "negative selection" minimal plates supplemented with 75 μg/ml 5FC: −
GIA39 E. coli cells; w/o HIF1-a plasmid, No arabinose
  Growth on "negative selection" minimal plates supplemented with 75 μg/ml 5FC: −

B2: BLA: the enzyme TEM-1 beta-lactamase (protein, UniProt P62593 24-286, looked up)
Beta-lactamase TEM: HPETLVKVKDAEDQLGARVGYIELDLNSGKILESFRPEERFPMMSTFKVLLCGAVLSRVDAGQEQLGRRIHYSQNDLVEYSPVTEKHLTDGMTVRELCSAAITMSDNTAANLLLTTIGGPKELTAFLHNMGDHVTRLDRWEPELNEAIPNDERDTTMPAAMATTLRKLLTGELLTLASRQQLIDWMEADKVAGPLLRSALPAGWFIADKSGAGERGSRGIIAALGPDGKPSRIVVIYTTGSQATMDERNRQIAEIGASLIKHW
E. coli cells
  Effect of maltose on MIC of ampicillin: not affect by maltose
